What all share (assay): two-hybrid library CCNG1;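 further: natural log of median RNA to DNA barcode read ratio; higher means stronger binding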
Assay [1] has as its target T1, 4H3354-bH.
T1 chain: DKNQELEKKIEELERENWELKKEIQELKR

Assay [2] concerns the target T2, 4H3427-bH.
T2 chain: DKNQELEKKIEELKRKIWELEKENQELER

Assay [3] has as its target T3, 4H2618-bH.
T3 chain: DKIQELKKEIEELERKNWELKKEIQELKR

For assay [4], the target named is T4, 4H3855-bH.
T4 chain: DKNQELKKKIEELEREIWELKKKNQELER

The target in assay [5] is T5, 4H2729-bH.
T5 chain: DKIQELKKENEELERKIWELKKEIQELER

In assay [6] the target is T6, 4H967-bH.
T6 chain: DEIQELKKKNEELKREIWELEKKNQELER

Assay [7] addresses T7, 4H717-bH.
T7 chain: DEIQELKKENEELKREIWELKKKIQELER

Assay [8] deals with T8, 4H3112-bH.
T8 chain: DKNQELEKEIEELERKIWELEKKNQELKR

The target of assay [9] is T9, 4H48-bN.
T9 chain: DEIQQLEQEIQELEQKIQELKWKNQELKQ

Assay [10] addresses T10, 4H568-bH.
T10 chain: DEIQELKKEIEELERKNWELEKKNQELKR

Assay [11] addresses T11, 4H338-bH.
T11 chain: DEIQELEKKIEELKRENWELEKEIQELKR

In assay [12] the target is T12, 4H797-bH.
T12 chain: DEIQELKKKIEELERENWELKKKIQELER

Assay [13] has as its target T13, 4H607-bH.
T13 chain: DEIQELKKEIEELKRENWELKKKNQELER

Assay [14] deals with T14, 4H3185-bH.
T14 chain: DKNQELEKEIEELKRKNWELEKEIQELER

Assay [15] concerns the target T15, 4H883-bH.
T15 chain: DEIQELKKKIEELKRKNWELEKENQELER

In assay [16] the target is T16, 4H2667-bH.
T16 chain: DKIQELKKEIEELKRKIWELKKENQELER

For assay [17], the target named is T17, 4H4001-bH.
T17 chain: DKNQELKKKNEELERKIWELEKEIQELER

Assay [18] has as its target T18, 4H908-bH.
T18 chain: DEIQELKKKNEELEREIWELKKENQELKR

Assay [19] deals with T19, 4H754-bH.
T19 chain: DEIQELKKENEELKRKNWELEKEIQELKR

Assay [20] concerns the target T20, 4H454-bH.
T20 chain: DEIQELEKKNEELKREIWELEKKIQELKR

In assay [21] the target is T21, 4H331-bH.
T21 chain: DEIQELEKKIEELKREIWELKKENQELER

Assay [22] has as its target T22, 4H72-bH.
T22 chain: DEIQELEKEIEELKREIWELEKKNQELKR

For assay [23], the target named is T23, 4H3782-bH.
T23 chain: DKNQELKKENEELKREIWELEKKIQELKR

Assay [24] concerns the target T24, 4H918-bH.
T24 chain: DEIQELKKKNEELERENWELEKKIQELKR

For assay [25], the target named is T25, 4H687-bH.
T25 chain: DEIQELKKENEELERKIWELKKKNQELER

For assay [26], the target named is T26, 4H953-bH.
T26 chain: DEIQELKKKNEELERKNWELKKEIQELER

Assay [27] addresses T27, 4H496-bH.
T27 chain: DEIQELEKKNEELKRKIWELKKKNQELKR

In assay [28] the target is T28, 4H932-bH.
T28 chain: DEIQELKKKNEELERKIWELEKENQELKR

The target in assay [29] is T29, 4H462-bH.
T29 chain: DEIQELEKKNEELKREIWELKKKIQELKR

The target in assay [30] is T30, P4A-bP.
T30 chain: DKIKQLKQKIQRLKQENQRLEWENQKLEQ

Assay [31] deals with T31, P5A-bP.
T31 chain: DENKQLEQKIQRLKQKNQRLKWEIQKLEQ

In assay [32] the target is T32, P9A-bP.
T32 chain: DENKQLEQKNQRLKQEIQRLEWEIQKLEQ

Assay [33] deals with T33, P7A-bP.
T33 chain: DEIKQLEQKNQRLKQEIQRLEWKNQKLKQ

Assay [34] addresses T34, P6A-bP.
T34 chain: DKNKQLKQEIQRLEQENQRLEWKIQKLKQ

The target of assay [35] is T35, P8A-bP.
T35 chain: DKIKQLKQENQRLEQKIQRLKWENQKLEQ

Assay [36] addresses T36, 4H575-bA.
T36 chain: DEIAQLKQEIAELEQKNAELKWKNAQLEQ

The target in assay [37] is T37, 4H754-bA.
T37 chain: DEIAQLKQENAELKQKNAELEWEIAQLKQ

The target of assay [38] is T38, 4H3010-bA.
T38 chain: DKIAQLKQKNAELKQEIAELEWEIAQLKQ

For assay [39], the target named is T39, 4H3112-bA.
T39 chain: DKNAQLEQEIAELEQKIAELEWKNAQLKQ

The target of assay [40] is T40, 4H855-bA.
T40 chain: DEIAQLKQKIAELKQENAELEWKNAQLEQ

In assay [41] the target is T41, 4H457-bA.
T41 chain: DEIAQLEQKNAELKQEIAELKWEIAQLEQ

In assay [42] the target is T42, 4H2673-bA.
T42 chain: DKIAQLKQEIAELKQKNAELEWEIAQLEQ

The target of assay [43] is T43, 4H3427-bA.
T43 chain: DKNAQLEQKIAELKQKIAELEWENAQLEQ

Assay [44] concerns the target T44, 4H346-bA.
T44 chain: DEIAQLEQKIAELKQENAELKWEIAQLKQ

For assay [45], the target named is T45, 4H4073-bA.
T45 chain: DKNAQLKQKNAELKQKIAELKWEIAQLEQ

The target in assay [46] is T46, 4H918-bA.
T46 chain: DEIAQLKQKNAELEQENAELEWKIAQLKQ

Assay [47] addresses T47, 4H968-bA.
T47 chain: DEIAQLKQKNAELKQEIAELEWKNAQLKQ

Assay [48] has as its target T48, 4H953-bA.
T48 chain: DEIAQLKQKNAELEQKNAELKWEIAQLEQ

The target of assay [49] is T49, 4H797-bA.
T49 chain: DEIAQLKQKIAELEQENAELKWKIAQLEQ

Assay [50] concerns the target T50, O2-bN.
T50 chain: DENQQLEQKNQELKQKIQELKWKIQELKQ

Assay [51] concerns the target T51, 4H683-bA.
T51 chain: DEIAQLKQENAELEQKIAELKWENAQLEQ

Assay [52] concerns the target T52, 4H2702-bA.
T52 chain: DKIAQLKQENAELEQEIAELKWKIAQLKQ

Assay [53] has as its target T53, 4H780-bA.
T53 chain: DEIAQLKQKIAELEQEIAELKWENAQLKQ

Assay [54] deals with T54, 4H2627-bA.
T54 chain: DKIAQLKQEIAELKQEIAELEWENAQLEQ

Assay [55] addresses T55, 4H2586-bA.
T55 chain: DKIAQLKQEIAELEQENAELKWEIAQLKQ

Assay [56] deals with T56, 4H3926-bA.
T56 chain: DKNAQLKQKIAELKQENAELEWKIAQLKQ

The target of assay [57] is T57, 4H491-bN.
T57 chain: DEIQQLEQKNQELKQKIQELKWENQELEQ

In assay [58] the target is T58, 4H491-bA.
T58 chain: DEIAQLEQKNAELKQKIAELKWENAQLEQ

For assay [59], the target named is T59, 4H48-bA.
T59 chain: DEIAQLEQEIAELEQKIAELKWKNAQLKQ

B1: 4H2618-bH (peptide)
chain: DKIQELKKEIEELERKNWELKKEIQELKR
With B1, the interaction score is 0.422 in [1]; 1.07 in assay [2]; 1.05 in assay [3]; -0.442 in [4]; 2 in assay [5]; -0.781 in assay [6]. Moreover, the interaction score in [7] was -0.283; in assay [8], -0.148; in assay [9], 1.54; in [10], -0.291; in [11], 1.42; in assay [12] it was 0.872. For the same molecule, the interaction score in assay [13] is -1.63; in assay [14], 1.08; in assay [15] it was 0.271; in assay [16], 0.678; in [17], 0.338; in assay [18], -1.01. In addition, the interaction score in assay [19] was -0.696; in [20], 1.16; in [21], 1.85; in [22] it was -0.76; in [23] it was -0.244; in assay [24] it was 0.911. Besides, the interaction score in [25] turned out to be 0.466; in [26], 0.869.

B2: 4H496-bH (peptide)
chain: DEIQELEKKNEELKRKIWELKKKNQELKR
B2: the interaction score in [27] was -0.197.

B3: 4H4001-bH (peptide)
chain: DKNQELKKKNEELERKIWELEKEIQELER
On to B3, for which the interaction score in [6] was -2.28; in assay [7] it was -0.479; in [10], -0.215; in assay [12], -0.61; in assay [13], -2.7; in assay [15] it was -1.67. Also, the interaction score is 0.0317 in assay [28]; -0.117 in assay [17]; -0.558 in [18]; -0.256 in assay [29]; -0.348 in assay [19]; 1.29 in [20]. In addition, the interaction score was -2.05 in assay [22]; -2.1 in [24]; -0.869 in assay [25]; 0.398 in [30]; -1.36 in assay [26].

B4: P4A-bP (peptide)
chain: DKIKQLKQKIQRLKQENQRLEWENQKLEQ
As to B4, the interaction score in assay [31] is -1.59; in [32] it was -0.489; in [33] it was -1.51; in assay [34], -0.773; in assay [30], -1.09; in assay [35], -0.918.

B5: 4H2586-bA (peptide)
chain: DKIAQLKQEIAELEQENAELKWEIAQLKQ
Take B5: the interaction score in assay [36] is -0.515; in assay [37] it was -1.06; in assay [38] it was 1.28; in assay [39], -1; in assay [40], 1.54; in assay [41] it was 0.765. Also, the interaction score in assay [42] was 0.53; in [43] it was -0.911; in assay [44], 0.976; in [45], 0.255; in assay [46], -0.499; in [47], -1.91. Also, the interaction score in assay [48] is 1.17; in assay [49], 0.763; in [50], -0.327; in assay [51], 0.537; in assay [52], 0.531; in assay [53] it was -1.17. Also, the values for the interaction score in assay [54], in assay [55] and in [56] were 0.292, 1.48 and 1.9, respectively.

B6: 4H48-bN (peptide)
chain: DEIQQLEQEIQELEQKIQELKWKNQELKQ
On to B6, for which the interaction score in assay [9] was 1.04; in assay [57], -0.799.

B7: 4H48-bA (peptide)
chain: DEIAQLEQEIAELEQKIAELKWKNAQLKQ
Take B7: the results for the interaction score in [58] and in [59] were 1.09 and 1.25, respectively.
